Tested on: SJCRH30 rhabdomyosarcoma cells
Test: SJCRH30 rhabdomyosarcoma xenograft tumor growth in mice (05 IGFR-01, 19D12 and Cytoxan)
Type: in vivo, Athymic nude mice
Procedure: Athymic nude mice were inoculated with tumor cells in the right flank, subcutaneously, along with Matrigel (1:1 cells:gel). In these experiments, 5×10^6 cells/mouse in a 1:1 mix with regular matrigel were inoculated subcutaneously. Tumor size was measured with calipers and the data was entered into the labcat program. Mice were grouped with average size of 100 mm^3. Tumor size and body weight were measured twice weekly.
In these experiments, mice were dosed twice per week, intraperitoneally (i.p.) with antibody 19D12 and chemotherapeutic agents at the indicated frequency. Tumor size and mouse body weight was measured twice weekly after treatment.

B1: 19D12: anti-IGF1R antibody: light chain variable region amino acids 20-128 of SEQ ID NO: 8, heavy chain variable region amino acids 20-137 of SEQ ID NO: 10 (antibody, V domains shown)
VL: MSPSQLIGFLLLWVPASRGEIVLTQSPGTLSVSPGERATLSCRASQSIGSSLHWYQQKPGQAPRLLIKYASQSLSGIPDRFSGSGSGTDFTLTISRLEPEDFAVYYCHQSSRLPHTFGQGTKVEIKRT
VH: MEFGLSWVFLVAILKGVQCEVQLVQSGGGLVKPGGSLRLSCAASGFTFSSFAMHWVRQAPGKGLEWISVIDTRGATYYADSVKGRFTISRDNAKNSLYLQMNSLRAEDTAVYYCARLGNFYYGMDVWGQGTTVTVSS
modifications: variable regions only: LC 20-128, HC 20-137; constant regions lack entries
Tumor Average Size (0.02 mg 19D12, Day 0): 74 mm^3 | Tumor Average Size (0.02 mg 19D12, Day 4): 144 mm^3 | Tumor Average Size (0.02 mg 19D12, Day 7): 337 mm^3 | Tumor Average Size (0.02 mg 19D12, Day 11): 534 mm^3 | Tumor Average Size (0.02 mg 19D12, Day 14): 714 mm^3 | Tumor Average Size (0.02 mg 19D12, Day 18): 926 mm^3 | Tumor Average Size (0.1 mg 19D12, Day 0): 74 mm^3 | Tumor Average Size (0.1 mg 19D12, Day 4): 126 mm^3 | Tumor Average Size (0.1 mg 19D12, Day 7): 232 mm^3 | Tumor Average Size (0.1 mg 19D12, Day 11): 372 mm^3 | Tumor Average Size (0.1 mg 19D12, Day 14): 520 mm^3 | Tumor Average Size (0.1 mg 19D12, Day 18): 681 mm^3 | Tumor Average Size (1 mg 19D12, Day 0): 75 mm^3 | Tumor Average Size (1 mg 19D12, Day 4): 103 mm^3 | Tumor Average Size (1 mg 19D12, Day 7): 183 mm^3 | Tumor Average Size (1 mg 19D12, Day 11): 284 mm^3 | Tumor Average Size (1 mg 19D12, Day 14): 442 mm^3 | Tumor Average Size (1 mg 19D12, Day 18): 562 mm^3

— US20150093398A1, “Methods and Compositions for Treating or Preventing Cancer” (MERCK SHARP & DOHME CORP., priority 2005, published 2015)
